Assay results taken from US20230220056A1 (KOOKMIN UNIVERSITY INDUSTRY ACADEMY COOPERATION FOUNDATION, published 2023).
One block for each binder: values may come before it.

Assays:
recombinant human GRP94 [1] = molecular target: T1, recombinant human GRP94 (human, UniProt P14625 22-799, limits assumed); test: ELISA, 100 ng rhGRP94 coated per well, IgG 0-500 nM; no unit beside the value, concentration axis in nM and the dotted drop line meets it at about 0.15
T1 construct: also called rhGRP94; glucose-regulated protein 94
T1 sequence (P14625 22-799 limits assumed): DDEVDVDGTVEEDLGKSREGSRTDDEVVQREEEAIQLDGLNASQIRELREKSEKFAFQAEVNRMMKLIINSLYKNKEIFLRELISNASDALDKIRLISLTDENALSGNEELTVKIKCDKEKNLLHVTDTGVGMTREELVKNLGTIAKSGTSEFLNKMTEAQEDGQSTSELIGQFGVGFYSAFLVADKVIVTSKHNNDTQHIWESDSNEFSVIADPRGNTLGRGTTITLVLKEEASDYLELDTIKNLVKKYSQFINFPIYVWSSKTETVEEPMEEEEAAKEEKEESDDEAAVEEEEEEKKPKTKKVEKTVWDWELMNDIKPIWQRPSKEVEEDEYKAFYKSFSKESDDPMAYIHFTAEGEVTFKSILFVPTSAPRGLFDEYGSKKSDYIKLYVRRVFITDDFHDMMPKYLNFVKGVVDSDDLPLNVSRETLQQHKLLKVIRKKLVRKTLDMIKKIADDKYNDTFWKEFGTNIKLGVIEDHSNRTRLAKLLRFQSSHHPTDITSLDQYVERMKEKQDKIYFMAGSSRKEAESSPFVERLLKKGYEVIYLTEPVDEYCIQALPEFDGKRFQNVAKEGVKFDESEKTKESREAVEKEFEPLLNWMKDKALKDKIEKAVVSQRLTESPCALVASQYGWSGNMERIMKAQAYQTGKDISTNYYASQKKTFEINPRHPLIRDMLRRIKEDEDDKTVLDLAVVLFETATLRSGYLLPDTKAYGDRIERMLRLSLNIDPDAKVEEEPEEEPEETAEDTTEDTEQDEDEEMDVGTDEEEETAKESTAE
Experimental: (§1) Each well of 96-well plates was coated with 0.1 μg of recombinant human GRP94 (rhGRP94), blocked with 3% (w/v) bovine serum albumin (BSA) in phosphate buffered saline (PBS) for 2 hours at 37° C., and incubated with 100 μL of GRP94 targeting IgG (20 μg/mL) for 2 hours at 37° C. The plates were washed thrice with 0.05% PBS-T, and 100 μL of a 500:1 dilution of the secondary antibody anti-human Fc Ab (Sigma-Aldrich) was added to each well. Incubation at 37° C. for 1 hour was followed by three rounds of washing with 0.05% PBS-T. Then, 100 μL of 3,3′,5,5′-tetramethylbenzidine (1-step ultra TMB) substrate solution was added to each well. Finally, optical densities were measured at 450 nm using a microplate reader (Synergy H1, BioTek).
(§2) In this regard, each well of 96-well plates was coated with 100 ng of rhGRP94 and blocked with 3% (w/v) bovine serum albumin (BSA) in PBS at 37° C. for 2 hours. Next, the plates were incubated with a concentration gradient of 0 nM to 500 nM of each clone for the GRP94 IgGs at 37° C. for 2 hours. The use of a secondary antibody and the measurement of optical density were conducted as described for the ELISA.

recombinant human GRP94 [2] = molecular target: T1, recombinant human GRP94; test: ELISA, 100 ng rhGRP94 coated per well, IgG 0-500 nM; no unit beside the value, concentration axis in nM and the dotted drop line meets it at about 0.5
Experimental: as §1, §2

recombinant human GRP94 [3] = molecular target: T1, recombinant human GRP94; test: ELISA, 100 ng rhGRP94 coated per well, IgG 0-500 nM; no unit beside the value, concentration axis in nM and the dotted drop line meets it at about 1.2
Experimental: as §1, §2

recombinant human GRP94 [4] = molecular target: T1, recombinant human GRP94; test: ELISA, 100 ng rhGRP94 coated per well, IgG 0-500 nM; no unit beside the value, concentration axis in nM and the dotted drop line meets it at about 0.1
Experimental: as §1, §2

Kd (recombinant human GRP94 [1]): 0.142 nM
B1: anti-GRP94 human IgG antibody 2H5 (antibody, V domains shown)
VH: EVQLLESGGGLVQPGGSLRLSCAASGFTFSGYAMSWVRQAPGKGLEWVSAISHGGSSKYYADSVKGRFTISRDNSKNTLYLQMNSLRAEDTAVYYCAKDLLSPLQSIGSYDDAMDVWGQGTLVTVSS
VL: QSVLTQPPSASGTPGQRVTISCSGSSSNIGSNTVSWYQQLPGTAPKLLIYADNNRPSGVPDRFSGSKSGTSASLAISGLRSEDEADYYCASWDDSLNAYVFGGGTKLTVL
notes: Tested as whole human IgG; also called GRP94 IgG 2H5

Kd (recombinant human GRP94 [2]): 0.467 nM
B2: anti-GRP94 human IgG antibody B5 (antibody, V domains shown)
VH: EVQLLESGGGLVQPGGSLRLSCAASGFTFSNYYMSWVRQAPGKGLEWVSGIYPNSGSTYYADSVKGRFTISRDNSKNTLYLQMNSLRAEDTAVYYCARDPLHPARFPFDYWGQGTLVTVSS
VL: QSVLTQPPSASGTPGQRVTISCTGSSSNIGNNAVSWYQQLPGTAPKLLIYADSHRPSGVPDRFSGSKSGTSASLAISGLRSEDEADYYCGAWDASLNAYVFGGGTKLTVL
notes: Tested as whole human IgG made from the selected scFv's VH and VL genes in pcDNA3.1 / Expi293 cells; also called GRP94 IgG B5

Kd (recombinant human GRP94 [3]): 1.21 nM
B3: anti-GRP94 human IgG antibody 3G7 (antibody, V domains shown)
VH: EVQLLESGGGLVQPGGSLRLSCAASGFTFSNYSMSWVRQAPGKGLEWVSGIYYGSGNKYYADSVKGRFTISRDNSKNTLYLQMNSLRAEDTAVYYCAKNLASFDYWGQGTLVTVSS
VL: QSVLTQPPSASGTPGQRVTISCSGSSSNIGSNSVNWYQQLPGTAPKLLIYSNSHRPSGVPDRFSGSKSGTSASLAISGLRSEDEADYYCGTWDSSLSGYVFGGGTKLTVL
notes: Tested as whole human IgG; also called GRP94 IgG 3G7

Kd (recombinant human GRP94 [4]): 0.0997 nM
B4: anti-GRP94 human IgG antibody E5 (antibody, V domains shown)
VH: EVQLLESGGGLVQPGGSLRLSCAASGFTFSNYAMSWVRQAPGKGLEWVSGISSSSGSTYYADSVKGRFTTSRDNSKNTLYLQMNSLRAEDTAVYYCARDRHPFSPNWFDYWGQGTLVTVSS
VL: QSVLTQPPSASGTPGQRVTISCSGSPSNIGSNTVTWYQQLPGTAPKLLIYADSHRPSGVPDRFSGSKSGTSASLAISGLRSEDEADYYCASWDDSLNGYVFGGGTKLTVL
notes: Tested as whole human IgG; also called GRP94 IgG E5
